Laboratory results: PMC10380307, “Enzymatic Characterization of the Isocitrate Dehydrogenase with Dual Coenzyme Specificity from the Marine Bacterium Umbonibacter marinipuiceus” (International Journal of Molecular Sciences, 2023)
Numbering of substitutions follows the chain as printed. In names and notes the source's numbering stands.

Key:
purified protein [1] = substrate: NC(=O)c1ccc[n+]([C@@H]2O[C@H](COP(=O)(O)OP(=O)(O)OC[C@H]3O[C@@H](n4cnc5c(N)ncnc54)[C@H](O)[C@@H]3O)[C@@H](O)[C@H]2O)c1; assay: purified protein; format: biochemical, Umboniibacter marinipuniceus; details: 1 mM DL-isocitrate, 50 mM Tris-HCl pH 8.5, 25 °C, apparent constant, varied: cofactor
purified protein [2] = substrate: NC(=O)c1ccc[n+]([C@@H]2O[C@H](COP(=O)(O)OP(=O)(O)OC[C@H]3O[C@@H](n4cnc5c(N)ncnc54)[C@H](OP(=O)(O)O)[C@@H]3O)[C@@H](O)[C@H]2O)c1; assay: purified protein; format: biochemical, Umboniibacter marinipuniceus; details: 1 mM DL-isocitrate, 50 mM Tris-HCl pH 8.5, 25 °C, apparent constant, varied: cofactor

B1: UmIDH (Umboniibacter marinipuniceus) (protein)
chain: MTFQYILPPKSGEPIQHTQDNQIIVPDRPIIPYIEGDGIGIDITPVMLEVVDAAVAQAYKGKKSIAWMEVFCGEKAADIYEGDWFPPETLAALQKYSVAIKGPLTTPIGGGFRSLNVALRQELDLYVCQRPIQWFKGVPSVVRKPNAVKMVIFRENSEDIYAGIEWRAGSEEAIKVTRFLQEEMGVTSLRFTENCGLGVKPISEQGSKRLVRKAIEYAIAHDKPSVTMVHKGNIMKYTEGAFCEWGYEVACEEFGATHEADSPWLTIINPNTAAKIVIKDVIADAMMQEILMYPQDHSVIATMNLNGDYLSDALAAQVGGIGIAPGANIGDRIALFEPTHGTAPRLAGMDRVNPCSLILSAEMMLRHLGWTKAADLMVKGVKYTISDRTVTHDFHSMMEHAELLSTSEFGAAVIKNMRRR
notes: full-length, codon-optimised synthetic gene in pET28b (NdeI/XhoI), 6xHis tag, E. coli Rosetta (DE3); Type I IDH; putative coenzyme residues R345, L346, V352
Km (purified protein [1]; Mn2+ (2 mM)): 1800.0 ± 64.4 µM | kcat (purified protein [1]; Mn2+ (2 mM)): 7.5 ± 0.3 s⁻¹ | kcat/Km (purified protein [1]; Mn2+ (2 mM)): 4200 M⁻¹ s⁻¹ | Km (purified protein [2]; Mn2+ (2 mM)): 1167.7 ± 113.0 µM | kcat (purified protein [2]; Mn2+ (2 mM)): 11.1 ± 0.4 s⁻¹ | kcat/Km (purified protein [2]; Mn2+ (2 mM)): 9500 M⁻¹ s⁻¹

B2: UmIDH (Umboniibacter marinipuniceus; L346Y/R345K) (protein)
chain: B1 chain with R345K, L346Y
notes: as for B1
Km (purified protein [2]; metal not stated for mutants): 605.9 ± 38.2 µM | kcat (purified protein [2]; metal not stated for mutants): 15.3 ± 0.2 s⁻¹ | kcat/Km (purified protein [2]; metal not stated for mutants): 25000 M⁻¹ s⁻¹

B3: UmIDH (Umboniibacter marinipuniceus; L346I/R345D/V352A) (protein)
chain: B1 chain with R345D, L346I, V352A
notes: as for B1
Km (purified protein [1]; metal not stated for mutants): 369.7 ± 11.84 µM | kcat (purified protein [1]; metal not stated for mutants): 17.7 ± 0.9 s⁻¹ | kcat/Km (purified protein [1]; metal not stated for mutants): 48000 M⁻¹ s⁻¹
